B1: G/T mismatch-specific thymine DNA glycosylase (Mus musculus), P56581 (parent)
chain: MDAEAARSYSLEQVQALYSFPFQQMMAEVPNMAVTTGQQVPAVAPNMATVTEQQVPEDAPVQEPAPEAPKRRKRKPRAAEPQEPVEPKKPATSKKSGKSTKSKEKQEKITDAFKVKRKVDRFNGVSEAELLTKTLPDILTFNLDIVIIGINPGLMAAYKGHHYPGPGNHFWKCLFMSGLSEVQLNHMDDHTLPGKYGIGFTNMVERTTPGSKDLSSKEFREGGRILVQKLQKYQPRIAVFNGKCIYEIFSKEVFGVKVKNLEFGLQPHKIPDTETLCYVMPSSSARCAQFPRAQDKVHYYIKLKDLRDQLKGIERNADVQEVQYTFDLQLAQEDAKKMAVKEEKYDPGYEAAYGGAYGENPCNGEPCGIASNGLTAHSAEPRGEAAPSDVPNGQWMAQSFAEQIPSFNNCGTREQEEESHA

Variants of: B1
Details: with ncoa1_human NCOA1, Q15788
ncoa1_human NCOA1, Q15788, sequence (Q15788 whole entry): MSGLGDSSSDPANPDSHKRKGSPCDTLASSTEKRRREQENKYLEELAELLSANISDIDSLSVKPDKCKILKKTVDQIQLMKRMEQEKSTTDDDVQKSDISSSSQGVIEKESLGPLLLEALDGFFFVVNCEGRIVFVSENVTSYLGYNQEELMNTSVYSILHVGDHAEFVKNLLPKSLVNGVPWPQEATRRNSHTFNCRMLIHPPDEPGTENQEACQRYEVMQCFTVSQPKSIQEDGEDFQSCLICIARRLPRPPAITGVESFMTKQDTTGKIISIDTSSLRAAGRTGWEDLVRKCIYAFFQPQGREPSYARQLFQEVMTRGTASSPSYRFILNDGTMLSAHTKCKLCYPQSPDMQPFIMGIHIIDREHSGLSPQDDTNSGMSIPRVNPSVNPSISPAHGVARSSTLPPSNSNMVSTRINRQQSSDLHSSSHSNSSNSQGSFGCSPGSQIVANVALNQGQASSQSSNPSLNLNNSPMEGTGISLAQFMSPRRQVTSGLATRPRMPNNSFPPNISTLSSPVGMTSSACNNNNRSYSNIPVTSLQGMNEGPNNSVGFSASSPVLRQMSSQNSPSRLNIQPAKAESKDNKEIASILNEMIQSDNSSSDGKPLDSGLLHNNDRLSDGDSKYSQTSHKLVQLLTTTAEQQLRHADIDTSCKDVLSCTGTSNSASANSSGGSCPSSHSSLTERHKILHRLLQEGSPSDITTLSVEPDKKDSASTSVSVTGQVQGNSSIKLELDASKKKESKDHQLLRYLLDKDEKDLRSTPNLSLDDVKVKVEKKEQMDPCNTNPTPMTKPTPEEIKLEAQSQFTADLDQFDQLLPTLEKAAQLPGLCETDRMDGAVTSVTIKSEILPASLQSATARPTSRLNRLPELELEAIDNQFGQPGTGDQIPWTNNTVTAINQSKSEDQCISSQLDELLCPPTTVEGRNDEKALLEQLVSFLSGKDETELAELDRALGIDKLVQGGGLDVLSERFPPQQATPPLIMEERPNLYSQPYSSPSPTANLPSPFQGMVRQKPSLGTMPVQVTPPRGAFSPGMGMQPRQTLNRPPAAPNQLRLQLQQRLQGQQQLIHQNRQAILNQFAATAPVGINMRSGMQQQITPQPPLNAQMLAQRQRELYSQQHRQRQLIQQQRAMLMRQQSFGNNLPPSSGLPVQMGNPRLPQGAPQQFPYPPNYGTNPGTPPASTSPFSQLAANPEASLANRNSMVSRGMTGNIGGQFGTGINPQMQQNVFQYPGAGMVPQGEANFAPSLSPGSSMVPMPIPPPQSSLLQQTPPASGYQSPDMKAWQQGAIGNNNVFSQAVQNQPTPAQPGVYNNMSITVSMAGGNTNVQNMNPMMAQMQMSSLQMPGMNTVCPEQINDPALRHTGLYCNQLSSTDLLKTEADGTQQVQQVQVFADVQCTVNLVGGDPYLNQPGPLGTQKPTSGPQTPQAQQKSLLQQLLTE

Variant | effect of a mutation on the interaction
MDAEAARSYSLEQVQALYSFPFQQMMAEVPNMAVTTGQQVPAVAPNMATVTEQQVPEDAPVQEPAPEAPKRRKRKPRAAEPQEPVEPKKPATSKKSGKSTKSKEKQEKITDAFKVKRKVDRFNGVSEAELLTKTLPDILTFNLDIVIIGINPGLMAAYKGHHYPGPGNHFWKCLFMSGLSEVQLNHMDDHTLPGKYGIGFTNMVERTTPGSKDLSSKEFREGGRILVQKLQKYQPRIAVFNGKCIYEIFSKEVFGVKVKNLEFGLQPHKIPDTETLCYVMPSSSARCAQFPRAQDKVHYYIKLKDLRDQLKGIERNADVQEVQYTFDLQLAQEDAKKMAVKEEKYDPGYEAAAGGAAGENPCNGEPCGIASNGLTAHSAEPRGEAAPSDVPNGQWMAQSFAEQIPSFNNCGTREQEEESHA [Y353A;Y357A] | decreasing interaction strength
MDAEAARSYSLEQVQALYSFPFQQMMAEVPNMAVTTGQQVPAVAPNMATVTEQQVPEDAPVQEPAPEAPKRRKRKPRAAEPQEPVEPKKPATSKKSGKSTKSKEKQEKITDAFKVKRKVDRFNGVSEAELLTKTLPDILTFNLDIVIIGINPGLMAAYKGHHYPGPGNHFWKCLFMSGLSEVQLNHMDDHTLPGKYGIGFTNMVERTTPGSKDLSSKEFREGGRILVQKLQKYQPRIAVFNGKCIYEIFSKEVFGVKVKNLEFGLQPHKIPDTETLCYVMPSSSARCAQFPRAQDKVHYYIKLKDLRDQLKGIERNADVQEVQYTFDLQLAQEDAKKMAVKEEKADPGAEAAAGGAAGENPCNGEPCGIASNGLTAHSAEPRGEAAPSDVPNGQWMAQSFAEQIPSFNNCGTREQEEESHA [Y345A;Y349A;Y353A;Y357A] | decreasing interaction strength
MDAEAARSYSLEQVQALYSFPFQQMMAEVPNMAVTTGQQVPAVAPNMATVTEQQVPEDAPVQEPAPEAPKRRKRKPRAAEPQEPVEPKKPATSKKSGKSTKSKEKQEKITDAFKVKRKVDRFNGVSEAELLTKTLPDILTFNLDIVIIGINPGLMAAYKGHHYPGPGNHFWKCLFMSGLSEVQLNHMDDHTLPGKYGIGFTNMVERTTPGSKDLSSKEFREGGRILVQKLQKYQPRIAVFNGKCIYEIFSKEVFGVKVKNLEFGLQPHKIPDTETLCYVMPSSSARCAQFPRAQDKVHYYIKLKDLRDQLKGIERNADVQEVQYTFDLQLAQEDAKKMAVKEEKADPGAEAAYGGAYGENPCNGEPCGIASNGLTAHSAEPRGEAAPSDVPNGQWMAQSFAEQIPSFNNCGTREQEEESHA [Y345A;Y349A] | decreasing interaction strength

Variants of: B1
Details: with ncoa1_human NCOA1, Q15788
Remark: another data set of the same source

Variant | effect of a mutation on the interaction
MDAEAARSYSLEQVQALYSFPFQQMMAEVPNMAVTTGQQVPAVAPNMATVTEQQVPEDAPVQEPAPEAPKRRKRKPRAAEPQEPVEPKKPATSKKSGKSTKSKEKQEKITDAFKVKRKVDRFNGVSEAELLTKTLPDILTFNLDIVIIGINPGLMAAYKGHHYPGPGNHFWKCLFMSGLSEVQLNHMDDHTLPGKYGIGFTNMVERTTPGSKDLSSKEFREGGRILVQKLQKYQPRIAVFNGKCIYEIFSKEVFGVKVKNLEFGLQPHKIPDTETLCYVMPSSSARCAQFPRAQDKVHYYIKLKDLRDQLKGIERNADVQEVQYTFDLQLAQEDAKKMAVKEEKFDPGFEAAFGGAFGENPCNGEPCGIASNGLTAHSAEPRGEAAPSDVPNGQWMAQSFAEQIPSFNNCGTREQEEESHA [Y345F;Y349F;Y353F;Y357F] | decreasing interaction strength
MDAEAARSYSLEQVQALYSFPFQQMMAEVPNMAVTTGQQVPAVAPNMATVTEQQVPEDAPVQEPAPEAPKRRKRKPRAAEPQEPVEPKKPATSKKSGKSTKSKEKQEKITDAFKVKRKVDRFNGVSEAELLTKTLPDILTFNLAIAAIGINPGLMAAYKGHHYPGPGNHFWKCLFMSGLSEVQLNHMDDHTLPGKYGIGFTNMVERTTPGSKDLSSKEFREGGRILVQKLQKYQPRIAVFNGKCIYEIFSKEVFGVKVKNLEFGLQPHKIPDTETLCYVMPSSSARCAQFPRAQDKVHYYIKLKDLRDQLKGIERNADVQEVQYTFDLQLAQEDAKKMAVKEEKYDPGYEAAYGGAYGENPCNGEPCGIASNGLTAHSAEPRGEAAPSDVPNGQWMAQSFAEQIPSFNNCGTREQEEESHA [D144A;V146A;I147A] | with no effect
MDAEAARSYSLEQVQALYSFPFQQMMAEVPNMAVTTGQQVPAVAPNMATVTEQQVPEDAPVQEPAPEAPKRRKRKPRAAEPQEPVEPKKPATSKKSGKSTKSKEKQEKITDAFKVKRKVDRFNGVSEAELLTKTLPDILTFNLDIVIIGIAPGLMAAYKGHHYPGPGNHFWKCLFMSGLSEVQLNHMDDHTLPGKYGIGFTNMVERTTPGSKDLSSKEFREGGRILVQKLQKYQPRIAVFNGKCIYEIFSKEVFGVKVKNLEFGLQPHKIPDTETLCYVMPSSSARCAQFPRAQDKVHYYIKLKDLRDQLKGIERNADVQEVQYTFDLQLAQEDAKKMAVKEEKYDPGYEAAYGGAYGENPCNGEPCGIASNGLTAHSAEPRGEAAPSDVPNGQWMAQSFAEQIPSFNNCGTREQEEESHA [N151A] | with no effect
MDAEAARSYSLEQVQALYSFPFQQMMAEVPNMAVTTGQQVPAVAPNMATVTEQQVPEDAPVQEPAPEAPKRRKRKPRAAEPQEPVEPKKPATSKKSGKSTKSKEKQEKITDAFKVKRKVDRFNGVSEAELLTKTLPDILTFNLDIVIIGINPGLMAAYKGHHYPGPGNHFWKCLFMSGLSEVQLNHMDDHTLPGKYGIGFTNMVERTTPGSKDLSSKEFREGGRILVQKLQKYQPRIAVFNGKCIYEIFSKEVFGVKVKNLEFGLQPHKIPDTETLCYVMPSSSARCAQFPRAQDKVHYYIKLKDLRDQLKGIERNADVQEVQYTFDLQLAQEDAKKMAVKEEKYDPGYEAAFGGAFGENPCNGEPCGIASNGLTAHSAEPRGEAAPSDVPNGQWMAQSFAEQIPSFNNCGTREQEEESHA [Y353F;Y357F] | decreasing interaction strength
MDAEAARSYSLEQVQALYSFPFQQMMAEVPNMAVTTGQQVPAVAPNMATVTEQQVPEDAPVQEPAPEAPKRRKRKPRAAEPQEPVEPKKPATSKKSGKSTKSKEKQEKITDAFKVKRKVDRFNGVSEAELLTKTLPDILTFNLDIVIIGINPGLMAAYKGHHYPGPGNHFWKCLFMSGLSEVQLNHMDDHTLPGKYGIGFTNMVERTTPGSKDLSSKEFREGGRILVQKLQKYQPRIAVFNGKCIYEIFSKEVFGVKVKNLEFGLQPHKIPDTETLCYVMPSSSARCAQFPRAQDKVHYYIKLKDLRDQLKGIERNADVQEVQYTFDLQLAQEDAKKMAVKEEKFDPGFEAAYGGAYGENPCNGEPCGIASNGLTAHSAEPRGEAAPSDVPNGQWMAQSFAEQIPSFNNCGTREQEEESHA [Y345F;Y349F] | decreasing interaction strength

Reference: IntAct's records for PubMed 16282588
